Test results taken from CN116284426A (SUNSHINE GUOJIAN PHARMACEUTICAL SHANGHAI CO LTD, dated 2023).

Tests used:
[1] = biological target: T1, CD3ε-ECD-his (UniProt P07766 23-126); assay: ELISA, CD3ε-ECD-his coated at 1 ug/mL (Table 19)
T1 construct: extracellular domain; also called CD3ε蛋白

[2] = biological target: T2, GUCY2C-His蛋白 (human GUCY2C extracellular region with C-terminal 6xHis) (human, UniProt P25092 24-430); assay: ELISA, GUCY2C-His coated, anti-human IgG Fab HRP (Table 17)
T2 construct: extracellular domain; Made in HEK-293F with an unspecified N-terminal signal peptide; also called 人GUCY2C-His蛋白
T2 sequence (P25092 other isoform, or with tags, fused parts or gaps): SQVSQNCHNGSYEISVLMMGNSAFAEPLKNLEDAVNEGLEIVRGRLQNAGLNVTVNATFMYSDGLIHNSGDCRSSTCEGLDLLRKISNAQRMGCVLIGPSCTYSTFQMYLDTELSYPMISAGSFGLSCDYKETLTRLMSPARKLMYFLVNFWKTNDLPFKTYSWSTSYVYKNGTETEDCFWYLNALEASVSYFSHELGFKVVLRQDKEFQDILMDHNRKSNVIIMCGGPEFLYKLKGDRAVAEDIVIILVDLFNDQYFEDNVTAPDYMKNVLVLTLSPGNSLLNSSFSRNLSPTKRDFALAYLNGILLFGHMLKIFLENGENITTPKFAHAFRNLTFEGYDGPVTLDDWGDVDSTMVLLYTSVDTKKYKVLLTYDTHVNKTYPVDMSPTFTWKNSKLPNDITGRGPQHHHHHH

[3] = biological target: T1, CD3ε-ECD-his; assay: ELISA, CD3ε-ECD-his coated; reference SP34
[4] = biological target: T3, GUCY2C-Fc蛋白 (human GUCY2C extracellular region fused to human IgG1 Fc) (human, UniProt P25092 24-430); assay: ELISA, GUCY2C-Fc coated, anti-human IgG Fab HRP (Table 18)
T3 construct: extracellular domain; Made in HEK-293F with an unspecified N-terminal signal peptide; also called 人GUCY2C-Fc蛋白; not shown: human IgG1 Fc at the C-terminus in place of the 6xHis tag
T3 sequence (P25092 24-430 limits assumed): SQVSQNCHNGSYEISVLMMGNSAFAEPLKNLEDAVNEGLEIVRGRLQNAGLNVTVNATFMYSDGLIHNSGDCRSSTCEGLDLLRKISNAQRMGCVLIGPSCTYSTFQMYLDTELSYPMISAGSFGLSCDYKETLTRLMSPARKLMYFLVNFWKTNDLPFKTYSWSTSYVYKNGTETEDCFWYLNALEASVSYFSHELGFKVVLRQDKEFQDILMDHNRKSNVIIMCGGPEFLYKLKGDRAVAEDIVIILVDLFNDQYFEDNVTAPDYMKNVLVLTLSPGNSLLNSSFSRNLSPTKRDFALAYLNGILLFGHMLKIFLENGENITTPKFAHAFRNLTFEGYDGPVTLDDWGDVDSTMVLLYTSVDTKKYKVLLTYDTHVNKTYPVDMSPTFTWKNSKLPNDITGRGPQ

[5] = biological target: GUCY2C on tumour cells (CW2, CW2-GCC#1, T84) (human, UniProt P25092 24-1073); assay: cell-based or functional assay
Sequence of GUCY2C on tumour cells (CW2, CW2-GCC#1, T84) (P25092 24-1073): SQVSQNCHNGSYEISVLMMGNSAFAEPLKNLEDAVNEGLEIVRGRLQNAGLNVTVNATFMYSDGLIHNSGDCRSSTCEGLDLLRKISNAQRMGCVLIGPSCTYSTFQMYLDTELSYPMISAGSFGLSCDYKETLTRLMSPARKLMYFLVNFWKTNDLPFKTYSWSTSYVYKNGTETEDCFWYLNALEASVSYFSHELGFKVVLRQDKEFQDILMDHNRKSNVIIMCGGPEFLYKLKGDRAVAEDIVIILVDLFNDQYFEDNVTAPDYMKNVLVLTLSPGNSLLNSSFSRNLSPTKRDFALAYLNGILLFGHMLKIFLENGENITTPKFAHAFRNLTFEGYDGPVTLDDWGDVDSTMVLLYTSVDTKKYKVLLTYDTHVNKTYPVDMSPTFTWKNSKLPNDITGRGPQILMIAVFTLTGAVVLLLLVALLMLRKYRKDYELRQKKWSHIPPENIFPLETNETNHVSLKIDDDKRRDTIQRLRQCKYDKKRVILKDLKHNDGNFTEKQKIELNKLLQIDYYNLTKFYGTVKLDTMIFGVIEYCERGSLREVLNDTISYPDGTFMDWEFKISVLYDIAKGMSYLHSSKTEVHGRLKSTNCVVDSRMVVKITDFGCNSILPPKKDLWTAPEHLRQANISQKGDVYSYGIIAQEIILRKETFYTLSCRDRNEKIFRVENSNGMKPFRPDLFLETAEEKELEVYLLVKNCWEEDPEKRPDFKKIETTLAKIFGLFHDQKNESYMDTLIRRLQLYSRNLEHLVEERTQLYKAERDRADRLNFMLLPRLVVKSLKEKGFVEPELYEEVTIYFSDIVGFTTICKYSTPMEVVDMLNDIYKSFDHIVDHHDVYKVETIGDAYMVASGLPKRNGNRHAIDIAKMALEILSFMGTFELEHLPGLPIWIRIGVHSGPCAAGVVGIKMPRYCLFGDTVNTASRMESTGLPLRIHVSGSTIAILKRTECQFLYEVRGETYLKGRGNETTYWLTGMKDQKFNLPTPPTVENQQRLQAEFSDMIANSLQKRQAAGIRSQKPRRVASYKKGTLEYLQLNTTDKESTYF

[6] = biological target: T3, GUCY2C-Fc蛋白 (human GUCY2C extracellular …); assay: ELISA, GUCY2C-Fc coated, anti-human IgG Fab HRP (Table 12)
[7] = biological target: T2, GUCY2C-His蛋白 (human GUCY2C …); assay: ELISA, GUCY2C-His coated, anti-human IgG Fab HRP (Table 10)
[8] = biological target: T1, CD3ε-ECD-his; assay: ELISA, CD3ε-ECD-his coated at 1 ug/mL, anti-human IgG Fab HRP (Table 14)

T1 sequence (P07766 other isoform, or with tags, fused parts or gaps): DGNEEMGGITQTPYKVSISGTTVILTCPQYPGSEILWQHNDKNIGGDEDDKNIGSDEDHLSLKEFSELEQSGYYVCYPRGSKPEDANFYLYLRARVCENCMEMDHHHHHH

| EC50 [1] | EC50 [2] | fold weaker affinity than SP34 [3] | EC50 [4] | EC50 [6] | EC50 [7] | EC50 [8] | Binder | IC50 of T-cell-mediated killing of T84 cells [5] |
| --- | --- | --- | --- | --- | --- | --- | --- | --- |
| 0.154 nM | – | – | – | – | – | – | SP34 (humanized anti-CD3 monoclonal antibody) (antibody, human IgG1, kappa, V domains shown, Full-length humanized IgG1/kappa made in HEK293F and purified on Protein A; also called SP34-HC/SP34-LC) VH: EVQLVESGGGLVQPGGSLRLSCAASGFTFNTYAMNWVRQAPGKGLEWVARIRSKYNNYATYYADSVKDRFTISRDDSKNTLYLQMNSLRAEDTAVYYCVRHGNFGNSYVSWFAYWGQGTLVTVSS VL: QAVVTQEPSLTVSPGGTVTLTCRSSTGAVTTSNYANWVQQKPGQAPRGLIGGTNKRAPGVPARFSGSLLGGKAALTLSGAQPEDEAEYYCALWYSNLWVFGQGTKVEIKR | – |
| 2.37 nM | 0.405 nM | ~10 fold | 0.752 nM | – | – | – | SP4VHL-32H2-KIH (bispecific antibody) chain 1: not shown chain 2: EVQLVESGGGLVKPGGSLRLSCAASGFSFRTYAMSWVRQAPGKSLEWVATISSGSSYIYYPDSVKGRFTVSRDNAKNSLYLQMNSLRAEDTAVYYCTCYRMETFEYWGQGTLVTVSSASTKGPSVFPLAPSSKSTSGGTAALGCLVKDYFPEPVTVSWNSGALTSGVHTFPAVLQSSGLYSLSSVVTVPSSSLGTQTYICNVNHKPSNTKVDKKVEPKSCDKTHTCPPCPAPELLGGPSVFLFPPKPKDTLMISRTPEVTCVVVDVSHEDPEVKFNWYVDGVEVHNAKTKPREEQYNSTYRVVSVLTVLHQDWLNGKEYKCKVSNKALPAPIEKTISKAKGQPREPQVYTLPPCREEMTKNQVSLSCAVKGFYPSDIAVEWESNGQPENNYKTTPPVLDSDGSFFLVSKLTVDKSRWQQGNVFSCSVMHEALHNHYTQKSLSLSPGK chain 3: DVVMTQSPLSLPVTLGQPASISCRSSQSLVYNNGNTYLHWYQQRPGQSPRLLIYKVSNRFSGVPDRFSGSGSGTDFTLKISRVEAEDVGVYFCSQSTHVPLTFGQGTKVEIKRTVAAPSVFIFPPSDEQLKSGTASVVCLLNNFYPREAKVQWKVDNALQSGNSQESVTEQDSKDSTYSLSSTLTLSKADYEKHKVYACEVTHQGLSSPVTKSFNRGEC | – |
| 4.02 nM | 0.733 nM | ~10 fold | 1.08 nM | – | – | – | SP4VHL-32H2-hik (bispecific antibody) chain 1: EVQLVESGGGLVQPGGSLRLSCAASGFTFNTYAMNWVRQAPGKGLEWVARIRSKYNNYATYYADSVKDRFTISRDDSKNTLYLQMNSLRAEDTAVYYCVRHGNFGNSYVSWFAYWGQGTLVTVSSGGGGSGGGGSGGGGSGGGGSQAVVTQEPSLTVSPGGTVTLTCRSSTGAVTTSNYANWVQQKPGQAPRGLIGGTNKRAPGVPARFSGSLLGGKAALTLSGAQPEDEAEYYCALWYSNLWVFGQGTKVEIKGGGGSGGGGSGGGGSEVQLVESGGGLVKPGGSLRLSCAASGFSFRTYAMSWVRQAPGKSLEWVATISSGSSYIYYPDSVKGRFTVSRDNAKNSLYLQMNSLRAEDTAVYYCTCYRMETFEYWGQGTLVTVSSASTKGPSVFPLAPSSKSTSGGTAALGCLVKDYFPEPVTVSWNSGALTSGVHTFPAVLQSSGLYSLSSVVTVPSSSLGTQTYICNVNHKPSNTKVDKKVEPKSCDKTHTCPPCPAPELLGGPSVFLFPPKPKDTLMISRTPEVTCVVVDVSHEDPEVKFNWYVDGVEVHNAKTKPREEQYNSTYRVVSVLTVLHQDWLNGKEYKCKVSNKALPAPIEKTISKAKGQPREPQVYTLPPCREEMTKNQVSLSCAVKGFYPSDIAVEWESNGQPENNYKTTPPVLDSDGSFFLVSKLTVDKSRWQQGNVFSCSVMHEALHNHYTQKSLSLSPGK chain 2: not shown chain 3: DVVMTQSPLSLPVTLGQPASISCRSSQSLVYNNGNTYLHWYQQRPGQSPRLLIYKVSNRFSGVPDRFSGSGSGTDFTLKISRVEAEDVGVYFCSQSTHVPLTFGQGTKVEIKRTVAAPSVFIFPPSDEQLKSGTASVVCLLNNFYPREAKVQWKVDNALQSGNSQESVTEQDSKDSTYSLSSTLTLSKADYEKHKVYACEVTHQGLSSPVTKSFNRGEC | – |
| – | – | – | – | 0.78 nM | 1.21 nM | 1.16 nM | SP4VHL-32H2-L (bispecific antibody, human IgG1, kappa, also called 结构18) heavy: not shown light: EVQLVESGGGLVQPGGSLRLSCAASGFTFNTYAMNWVRQAPGKGLEWVARIRSKYNNYATYYADSVKDRFTISRDDSKNTLYLQMNSLRAEDTAVYYCVRHGNFGNSYVSWFAYWGQGTLVTVSSGGGGSGGGGSGGGGSGGGGSQAVVTQEPSLTVSPGGTVTLTCRSSTGAVTTSNYANWVQQKPGQAPRGLIGGTNKRAPGVPARFSGSLLGGKAALTLSGAQPEDEAEYYCALWYSNLWVFGQGTKVEIKGGGGSGGGGSGGGGSDVVMTQSPLSLPVTLGQPASISCRSSQSLVYNNGNTYLHWYQQRPGQSPRLLIYKVSNRFSGVPDRFSGSGSGTDFTLKISRVEAEDVGVYFCSQSTHVPLTFGQGTKVEIKRTVAAPSVFIFPPSDEQLKSGTASVVCLLNNFYPREAKVQWKVDNALQSGNSQESVTEQDSKDSTYSLSSTLTLSKADYEKHKVYACEVTHQGLSSPVTKSFNRGEC | – |

More lines, now with the values behind:

| Binder | EC50 [1] | EC50 [2] | fold weaker affinity than SP34 [3] | EC50 [4] | EC50 [6] | EC50 [7] | EC50 [8] | IC50 of T-cell-mediated killing of T84 cells [5] |
| --- | --- | --- | --- | --- | --- | --- | --- | --- |
| 32H2CH1-SP4VHL-hik (bispecific antibody, human IgG1, kappa, also called 结构8) heavy 1: EVQLVESGGGLVKPGGSLRLSCAASGFSFRTYAMSWVRQAPGKSLEWVATISSGSSYIYYPDSVKGRFTVSRDNAKNSLYLQMNSLRAEDTAVYYCTCYRMETFEYWGQGTLVTVSSASTKGPSVFPLAPSSKSTSGGTAALGCLVKDYFPEPVTVSWNSGALTSGVHTFPAVLQSSGLYSLSSVVTVPSSSLGTQTYICNVNHKPSNTKVDKKVEPKSCGGGGSGGGGSGGGGSEVQLVESGGGLVQPGGSLRLSCAASGFTFNTYAMNWVRQAPGKGLEWVARIRSKYNNYATYYADSVKDRFTISRDDSKNTLYLQMNSLRAEDTAVYYCVRHGNFGNSYVSWFAYWGQGTLVTVSSGGGGSGGGGSGGGGSGGGGSQAVVTQEPSLTVSPGGTVTLTCRSSTGAVTTSNYANWVQQKPGQAPRGLIGGTNKRAPGVPARFSGSLLGGKAALTLSGAQPEDEAEYYCALWYSNLWVFGQGTKVEIKGGGSDKTHTCPPCPAPELLGGPSVFLFPPKPKDTLMISRTPEVTCVVVDVSHEDPEVKFNWYVDGVEVHNAKTKPREEQYNSTYRVVSVLTVLHQDWLNGKEYKCKVSNKALPAPIEKTISKAKGQPREPQVYTLPPCREEMTKNQVSLSCAVKGFYPSDIAVEWESNGQPENNYKTTPPVLDSDGSFFLVSKLTVDKSRWQQGNVFSCSVMHEALHNHYTQKSLSLSPGK heavy 2: not shown light: DVVMTQSPLSLPVTLGQPASISCRSSQSLVYNNGNTYLHWYQQRPGQSPRLLIYKVSNRFSGVPDRFSGSGSGTDFTLKISRVEAEDVGVYFCSQSTHVPLTFGQGTKVEIKRTVAAPSVFIFPPSDEQLKSGTASVVCLLNNFYPREAKVQWKVDNALQSGNSQESVTEQDSKDSTYSLSSTLTLSKADYEKHKVYACEVTHQGLSSPVTKSFNRGEC | 1.92 nM | 0.428 nM | ~10 fold | 0.869 nM | – | – | – | 0.002 nM |
| 32H2-SP4VHL (bispecific antibody, human IgG1, kappa, also called 结构1) heavy: not shown light: DVVMTQSPLSLPVTLGQPASISCRSSQSLVYNNGNTYLHWYQQRPGQSPRLLIYKVSNRFSGVPDRFSGSGSGTDFTLKISRVEAEDVGVYFCSQSTHVPLTFGQGTKVEIKRTVAAPSVFIFPPSDEQLKSGTASVVCLLNNFYPREAKVQWKVDNALQSGNSQESVTEQDSKDSTYSLSSTLTLSKADYEKHKVYACEVTHQGLSSPVTKSFNRGEC | – | – | – | – | 0.29 nM | 0.26 nM | 0.3 nM | – |
| 32H2CH1-SP4VHL-KIH (bispecific antibody, human IgG1, kappa, also called 结构9) heavy 1: not shown heavy 2: EVQLVESGGGLVKPGGSLRLSCAASGFSFRTYAMSWVRQAPGKSLEWVATISSGSSYIYYPDSVKGRFTVSRDNAKNSLYLQMNSLRAEDTAVYYCTCYRMETFEYWGQGTLVTVSSASTKGPSVFPLAPSSKSTSGGTAALGCLVKDYFPEPVTVSWNSGALTSGVHTFPAVLQSSGLYSLSSVVTVPSSSLGTQTYICNVNHKPSNTKVDKKVEPKSCDKTHTCPPCPAPELLGGPSVFLFPPKPKDTLMISRTPEVTCVVVDVSHEDPEVKFNWYVDGVEVHNAKTKPREEQYNSTYRVVSVLTVLHQDWLNGKEYKCKVSNKALPAPIEKTISKAKGQPREPQVYTLPPCREEMTKNQVSLSCAVKGFYPSDIAVEWESNGQPENNYKTTPPVLDSDGSFFLVSKLTVDKSRWQQGNVFSCSVMHEALHNHYTQKSLSLSPGK light: DVVMTQSPLSLPVTLGQPASISCRSSQSLVYNNGNTYLHWYQQRPGQSPRLLIYKVSNRFSGVPDRFSGSGSGTDFTLKISRVEAEDVGVYFCSQSTHVPLTFGQGTKVEIKRTVAAPSVFIFPPSDEQLKSGTASVVCLLNNFYPREAKVQWKVDNALQSGNSQESVTEQDSKDSTYSLSSTLTLSKADYEKHKVYACEVTHQGLSSPVTKSFNRGEC | 1.31 nM | 0.264 nM | ~10 fold | 0.681 nM | – | – | – | 0.366 nM |
